From PMC3094209

Assays:
[1] = target: human angiotensin receptor type 2 expressed in Sf9 insect cells (human) (UniProt P50052); experiment: radioligand binding; membranes from small-scale cultures; radioactive-labelled specific ligand; specific binding in pmol/mg-membrane, mean ± S.D., n = 3
[2] = target: human angiotensin receptor type 2 expressed in P. pastoris (human) (UniProt P50052); experiment: as above

Angiotensin (printed as "Angiotenin"), radioactive-labelled agonist (peptide)
specific binding activity (pmol/mg-membrane) [1]: 1.66
specific binding activity (pmol/mg-membrane) [2]: 3.69
